Test results: patent US7700573

Molecular target: KOC1 (RNA-immunoprecipitation from NSCLC cells) (Homo sapiens) (UniProt O00425)
Assay: pulldown

KOC1 (RNA-immunoprecipitation from NSCLC cells) (Homo sapiens), sequence (O00425 whole entry): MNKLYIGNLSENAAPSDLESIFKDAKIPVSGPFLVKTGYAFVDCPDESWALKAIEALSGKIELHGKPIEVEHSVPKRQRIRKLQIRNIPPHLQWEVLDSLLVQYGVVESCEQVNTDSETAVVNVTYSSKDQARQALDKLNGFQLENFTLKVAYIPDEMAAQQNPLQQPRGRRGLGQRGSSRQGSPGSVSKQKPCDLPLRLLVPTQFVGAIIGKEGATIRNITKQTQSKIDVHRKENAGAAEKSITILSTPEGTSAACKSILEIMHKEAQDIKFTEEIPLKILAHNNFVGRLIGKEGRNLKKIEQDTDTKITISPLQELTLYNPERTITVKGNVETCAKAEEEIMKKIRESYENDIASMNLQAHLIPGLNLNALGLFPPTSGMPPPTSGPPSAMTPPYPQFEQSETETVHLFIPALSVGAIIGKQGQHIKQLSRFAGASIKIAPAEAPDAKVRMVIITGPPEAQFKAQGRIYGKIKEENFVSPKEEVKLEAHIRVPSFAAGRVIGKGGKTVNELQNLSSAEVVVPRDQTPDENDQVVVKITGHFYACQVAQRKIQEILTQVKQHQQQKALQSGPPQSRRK

Row | Substance | binding signal (fold IP/input, sum of five cell lines) (RNA-IP microarray) | further results
1 | ACTB mRNA (BC053988) |  | binding signal (fold IP/input, sum of five cell lines) (negative control): 0
2 | CCT2 mRNA (AF026166) |  | binding signal (fold IP/input, sum of five cell lines) (RNA-IP microarray, association in cell extract): 32.3
3 | GL mRNA (AJ420489) | 16 | 
4 | PKP4 mRNA (AI681111) | 12.6 | 
5 | PSMB7 mRNA (BM837906) | 16.5 | 
6 | SBP2 mRNA (AF380995) | 24 | 
7 | SLC25A3 mRNA (NM_002635) | 21.7 | 
8 | WINS1 mRNA (AA741459) | 10.9 | 
